Source: publication PMC5540999, “In vivo monitoring of the recruitment and activation of AP-1 by Arf1” (Scientific Reports, 2017)

Biological target: T1, β1-RlucII (human, UniProt Q10567 1-949)
T1 construct: β1 subunit of AP-1, human; amplified by PCR minus the stop codon; also called β-RlucII; source: HEK293T, transfected, in live cells (BRET), cell fractions and lysate (co-IP); not shown: RlucII, C-terminal, kept
T1 sequence (looked up): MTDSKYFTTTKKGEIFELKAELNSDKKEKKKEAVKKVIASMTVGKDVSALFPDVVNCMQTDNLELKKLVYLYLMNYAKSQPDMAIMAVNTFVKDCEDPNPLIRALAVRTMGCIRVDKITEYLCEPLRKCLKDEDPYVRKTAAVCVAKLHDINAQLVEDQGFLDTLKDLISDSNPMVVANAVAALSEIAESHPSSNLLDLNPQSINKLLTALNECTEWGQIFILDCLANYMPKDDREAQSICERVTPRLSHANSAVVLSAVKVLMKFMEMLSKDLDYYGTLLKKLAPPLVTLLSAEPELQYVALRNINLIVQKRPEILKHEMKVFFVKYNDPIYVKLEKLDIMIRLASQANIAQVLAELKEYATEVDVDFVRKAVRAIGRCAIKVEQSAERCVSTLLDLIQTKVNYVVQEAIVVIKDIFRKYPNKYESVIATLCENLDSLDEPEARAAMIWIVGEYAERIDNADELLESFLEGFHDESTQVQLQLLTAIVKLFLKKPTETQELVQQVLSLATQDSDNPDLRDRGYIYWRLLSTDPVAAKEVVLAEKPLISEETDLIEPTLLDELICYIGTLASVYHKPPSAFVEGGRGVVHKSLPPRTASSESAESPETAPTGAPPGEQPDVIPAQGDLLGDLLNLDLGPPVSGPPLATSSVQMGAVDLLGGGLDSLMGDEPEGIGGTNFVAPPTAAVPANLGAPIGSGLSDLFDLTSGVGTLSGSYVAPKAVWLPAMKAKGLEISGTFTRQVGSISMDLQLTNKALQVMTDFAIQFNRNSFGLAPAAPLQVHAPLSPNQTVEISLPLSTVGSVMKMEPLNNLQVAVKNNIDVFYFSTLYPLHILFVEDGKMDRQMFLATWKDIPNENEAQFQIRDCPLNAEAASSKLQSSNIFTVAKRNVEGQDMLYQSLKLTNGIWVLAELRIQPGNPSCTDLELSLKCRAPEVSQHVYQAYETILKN
Experiment: FRET or BRET; BRET^2 in live HEK293T cells (γ/µ1 also in Arf1-KO cells; some panels with Brefeldin A 10 µM 15 min or co-expressed Arf1-HA forms): low constant amount of the RlucII donor, increasing amounts of the GFP10 acceptor; coelenterazine 400a 5 µM; BRET50 and BRETmax from a one-site saturation fit
Details: partners not purified

- fold decrease of BRET50 in the presence of Arf1^Q71L-HA: ~4 fold
B1: β1-GFP10 (AP-1 β1 subunit, wild type) (natural protein, human, UniProt Q10567 1-949, looked up)
chain: MTDSKYFTTTKKGEIFELKAELNSDKKEKKKEAVKKVIASMTVGKDVSALFPDVVNCMQTDNLELKKLVYLYLMNYAKSQPDMAIMAVNTFVKDCEDPNPLIRALAVRTMGCIRVDKITEYLCEPLRKCLKDEDPYVRKTAAVCVAKLHDINAQLVEDQGFLDTLKDLISDSNPMVVANAVAALSEIAESHPSSNLLDLNPQSINKLLTALNECTEWGQIFILDCLANYMPKDDREAQSICERVTPRLSHANSAVVLSAVKVLMKFMEMLSKDLDYYGTLLKKLAPPLVTLLSAEPELQYVALRNINLIVQKRPEILKHEMKVFFVKYNDPIYVKLEKLDIMIRLASQANIAQVLAELKEYATEVDVDFVRKAVRAIGRCAIKVEQSAERCVSTLLDLIQTKVNYVVQEAIVVIKDIFRKYPNKYESVIATLCENLDSLDEPEARAAMIWIVGEYAERIDNADELLESFLEGFHDESTQVQLQLLTAIVKLFLKKPTETQELVQQVLSLATQDSDNPDLRDRGYIYWRLLSTDPVAAKEVVLAEKPLISEETDLIEPTLLDELICYIGTLASVYHKPPSAFVEGGRGVVHKSLPPRTASSESAESPETAPTGAPPGEQPDVIPAQGDLLGDLLNLDLGPPVSGPPLATSSVQMGAVDLLGGGLDSLMGDEPEGIGGTNFVAPPTAAVPANLGAPIGSGLSDLFDLTSGVGTLSGSYVAPKAVWLPAMKAKGLEISGTFTRQVGSISMDLQLTNKALQVMTDFAIQFNRNSFGLAPAAPLQVHAPLSPNQTVEISLPLSTVGSVMKMEPLNNLQVAVKNNIDVFYFSTLYPLHILFVEDGKMDRQMFLATWKDIPNENEAQFQIRDCPLNAEAASSKLQSSNIFTVAKRNVEGQDMLYQSLKLTNGIWVLAELRIQPGNPSCTDLELSLKCRAPEVSQHVYQAYETILKN
notes: β1 subunit of the adaptor protein complex 1 (AP-1), human; amplified by PCR minus the stop codon; also called β-GFP10; full-length β1-GFP10; source: HEK293T, transfected, in live cells (BRET), cell fractions and lysate (co-IP); not shown: GFP10, C-terminal, kept
